Substrate: CC=O
Test: purified protein
Format: biochemical, Homo sapiens
Conditions: NAD+

B1: aldehyde dehydrogenase 2 (ALDH2) (Homo sapiens) (protein)
chain: SAAATQAVPAPNQQPEVFCNQIFINNEWHDAVSRKTFPTVNPSTGEVICQVAEGDKEDVDKAVKAARAAFQLGSPWRRMDASHRGRLLNRLADLIERDRTYLAALETLDNGKPYVISYLVDLDMVLKCLRYYAGWADKYHGKTIPIDGDFFSYTRHEPVGVCGQIIPWNFPLLMQAWKLGPALATGNVVVMKVAEQTPLTALYVANLIKEAGFPPGVVNIVPGFGPTAGAAIASHEDVDKVAFTGSTEIGRVIQVAAGSSNLKRVTLELGGKSPNIIMSDADMDWAVEQAHFALFFNQGQCCCAGSRTFVQEDIYDEFVERSVARAKSRVVGNPFDSKTEQGPQVDETQFKKILGYINTGKQEGAKLLCGGGIAADRGYFIQPTVFGDVQDGMTIAKEEIFGPVMQILKFKTIEEVVGRANNSTYGLAAAVFTKDLDKANYLSQALQAGTVWVNCYDVFGAQSPFGGYKMSGSGRELGEYGLQAYTEVKTVTVKVPQKNS
Km: 1.8 µM
